Results as given in patent publication US20240376151A1, “STAPLED PEPTIDES AND METHODS THEREOF” (FOG PHARMACEUTICALS, INC., priority 2022, published 2024).

Biological target: T1, beta-catenin (Homo sapiens, UniProt P35222)
T1 construct: made in house; host or cells: E. coli BL21 (DE3) pLysS
T1 sequence (P35222 134-665): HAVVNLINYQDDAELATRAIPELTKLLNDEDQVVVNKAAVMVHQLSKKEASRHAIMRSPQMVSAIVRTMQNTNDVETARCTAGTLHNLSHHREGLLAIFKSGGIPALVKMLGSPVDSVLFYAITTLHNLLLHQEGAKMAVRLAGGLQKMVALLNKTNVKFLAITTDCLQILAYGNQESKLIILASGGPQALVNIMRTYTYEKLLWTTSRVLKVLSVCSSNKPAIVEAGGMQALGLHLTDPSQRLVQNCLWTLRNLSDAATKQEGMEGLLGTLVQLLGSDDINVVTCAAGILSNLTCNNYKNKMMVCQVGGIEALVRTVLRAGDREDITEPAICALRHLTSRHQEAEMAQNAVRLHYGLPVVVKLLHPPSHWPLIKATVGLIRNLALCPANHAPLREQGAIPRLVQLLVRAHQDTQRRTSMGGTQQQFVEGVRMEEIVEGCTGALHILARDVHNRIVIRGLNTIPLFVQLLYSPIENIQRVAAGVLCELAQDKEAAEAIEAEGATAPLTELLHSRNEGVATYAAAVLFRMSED
Assay: Phage Library Screening with NGS, beta-catenin
Assay type: binding
Conditions: for Target Concentration 10 (phage screen NGS readout): beta-catenin target concentration 10; for Target Concentration 10 (phage screen NGS readout) / Target Concentration 30 (phage screen NGS readout) / Target Concentration 100 (phage screen NGS readout) / Target Concentration 300 (phage screen NGS readout): no competitor; for Target Concentration 30 (phage screen NGS readout): beta-catenin target concentration 30; for Target Concentration 100 (phage screen NGS readout): beta-catenin target concentration 100; for Target Concentration 300 (phage screen NGS readout): beta-catenin target concentration 300; for Target Concentration 1000 (phage screen NGS readout): beta-catenin target concentration 1000

Target Concentration BLANK (phage screen NGS readout) (first column) | Target Concentration BLANK (phage screen NGS readout) (fourth column) | Target Concentration BLANK (phage screen NGS readout) (second column) | Target Concentration BLANK (phage screen NGS readout) (third column) | Target Concentration 10 (phage screen NGS readout) | Target Concentration 30 (phage screen NGS readout) | Target Concentration 100 (phage screen NGS readout) | Target Concentration 300 (phage screen NGS readout) | Target Concentration 1000 (phage screen NGS readout) (first 1000 column) | Target Concentration 1000 (phage screen NGS readout) (second 1000 column) | Sequence
0 | 0 | 0 | 0 | 0 | 0 | 1 | 8 | 4 | 23 | DPAILNCHVAAWNCHSF
0 | 3 | 0 | 0 | 2 | 1 | 6 | 8 | 1 | 44 | DPAILDCHIAAIQCFHD
1 | 0 | 0 | 0 | 2 | 15 | 60 | 231 | 177 | 234 | DPAHWHCEHAALLCASV
0 | 0 | 1 | 0 | 0 | 7 | 18 | 71 | 69 | 105 | DPAILTCYEAAFTCQYQ
0 | 0 | 0 | 0 | 0 | 4 | 21 | 44 | 31 | 66 | DPAVDECIIAAHICHIW
0 | 0 | 2 | 1 | 0 | 0 | 0 | 1 | 2 | 7 | DPAVFMCYEAAFECQYF
0 | 0 | 0 | 0 | 0 | 0 | 10 | 8 | 13 | 10 | DPALWNCDHAALLCDHQ
0 | 0 | 1 | 0 | 0 | 2 | 47 | 96 | 104 | 118 | DPAHWVCEHAALNCDQN
